B1: TRAF3IP2 (parent)
chain: FMEKRNQWLVSQLSAASPDTGHDS

Variants of: B1
Test: protein stability index of a GFP-peptide fusion (GPS, HEK-293T) (PSI 1-6); higher = more stable
Conditions: c terminus: a fixed tail appended
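Note: lentivirally expressed fusions sorted by FACS into six bins by GFP to DsRed ratio, PSI derived from sequencing read proportions per bin multiplied by bin number.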

Protein stability index, by site and new letter:
S17: T 3.03; E 2.88; Y 1.71; D 2.94; G 2.47; K 2.41; P 2.66; M 2.1; Q 2.63; I 2.19; N 2.35; W 1.57; C 2.98; F 1.88; V 1.88; H 2.73; R 2.46; L 2.54
A16: P 2.14; N 2.9; L 1.38; I 2.26; F 2.9; T 1.96; G 3.03; Q 2.6; D 2.29; K 2.09; M 2.06; E 2.62; C 1.96; Y 1.87; R 1.54; H 2.47; V 2.26; S 2.39
W8: N 5.08; V 4.79; F 3.95; I 4.25; P 4.58; M 4.72; L 4.45; R 4.68; E 4.74; C 4.71; S 4.93; D 5.06; A 4.75; K 4.57; Q 4.63; Y 4.21; G 5.09; T 5.2; H 4.43
L13: P 3.13; M 2.48; F 2.48; R 3.01; I 2.17; S 3.17; T 2.67; Y 2.35; G 2.47; D 3.45; A 3.73; Q 2.5; K 2.84; E 3.2; W 2.45; C 1.91; V 2.61
A15: Q 2.34; V 1.83; W 2.29; L 2.3; D 2.47; C 2.38; I 1.77; T 2.7; E 2.73; H 2.33; S 1.79; N 2.21; K 3.53; R 3.45; P 2.75; F 1.83; M 1.7; G 2.71
D19: P 2.33; R 2.9; F 1.8; M 2.57; H 2.2; N 2.4; G 1.7; A 3.69; I 2.52; L 1.92; C 2.45; E 1.91; K 2.28
S14: P 2.53; Y 1.63; A 2.34; D 3.29; N 2.58; K 2.41; L 1.66; H 2.48; R 2.39; G 2.3; T 2.77; Q 2.57; V 1.65; M 2.34; F 1.93; I 2.08; C 2.15; W 1.89; E 2.74
N6: H 2.05; A 2.24; D 2.73; S 2.2; M 2.06; I 1.42; C 1.77; K 2.42; Q 1.91; V 2.02; T 1.83; G 3.08; R 2.44; W 1.29; L 1.51; Y 1.56; P 3.03
E3: M 2.28; P 1.93; F 2.94; I 2.32; V 1.95; R 1.05; T 3.83; S 1.77; L 2.75; C 1.58; N 1.97; D 2.24; Y 3.02; A 3; H 1.71; K 2.91; Q 2.27; W 1.81
P18: R 2.77; L 1.93; Q 2.09; E 2.62; W 1.67; V 2.54; S 1.49; I 2.69; K 2.42; A 2.35; G 2.38; T 2.94; M 2.22; Y 2.7; H 2.08; F 1.9; D 2.88; N 2.5; C 2.22
F1: E 4.77; H 4.84; Q 4.88; V 4.55; L 3.88; W 3.17; C 3.98; D 5.05; G 4.26; M 3.56; T 4.2; R 4.48; I 3.72; K 3.71; Y 2.84; P 3.95; S 4.37; N 4.36
V10: E 4.34; P 2.46; L 2.29; M 2.74; S 3.5; T 3.21; H 3.38; Y 2.5; C 1.99; F 1.29; G 3.14; N 3.46; A 3.61; R 3.28; I 2.12; K 3.41; D 4.18; Q 2.93
R5: C 2.25; A 1.97; M 2.94; W 3.1; K 2.38; N 1.98; P 1.36; S 2.28; T 2.16; Y 1.89; D 2.99; F 1.83; E 3.5; V 1.97; L 1.79; Q 2.67; H 2.62; G 1.71; I 1.68
M2: N 3.29; P 1.42; W 3.41; L 2.46; C 2.94; S 2.2; T 2.55; Q 3.27; E 4.75; K 4.28; I 1.25; Y 2.97; R 3.56; D 3.06; H 1.58; F 3.6
L9: M 2.36; D 4.31; F 2.73; Q 3.03; S 3.15; Y 2.9; I 2.9; A 2.19; K 2.7; H 3.82; V 1.71; N 3.44; P 3.83; R 2.08; T 2.44; C 2.41; G 3.34; E 4.27
Q12: A 2.04; M 1.68; F 1.94; N 2.81; D 3.21; W 1.45; S 1.77; V 1.53; T 1.7; P 2.71; Y 1.98; C 1.85; L 1.65; R 2.33; I 1.89; H 3.89; K 1.77; E 3.33
K4: Y 2.17; W 1.3; S 2.24; E 3.69; A 1.71; G 1.89; R 2.54; N 2.38; F 2.35; D 3; P 2.36; H 2.16; I 2.6; T 2.52; M 2.51; Q 2.57; L 2.26
Q7: C 1.87; N 2.65; D 3.31; W 2.86; I 2.35; P 1.58; A 1.02; M 1.8; H 2.26; Y 2.88; R 2.98; T 1.79; K 3.36; E 2.72; S 1.64; V 1.81
S11: D 3.79; Y 2.64; C 2.22; M 1.71; L 1.46; W 3.25; A 1.94; H 2.63; Q 2.89; T 2.19; K 2.7; R 3.3; P 2.9; V 2.4; I 2.06; N 3.18; G 3.32; E 3.27

Reference: the supplement of paper PMC10567573
